Laboratory results reported in patent publication US20230399390A1 (NOVAGO THERAPEUTICS, published 2023).
Blank lines part the entries; values can stand above or below the binder they belong to.

Experiments:
[1] = target: T1, rat Nogo-A d20plus region, recombinantly produced in E. coli (rat, UniProt Q9JK11 520-843, limits assumed); test: ELISA, coated rat d20plus
T1 construct: domain: d20plus; also called rat d20plus; rat peptide d20plus
T1 sequence (looked up): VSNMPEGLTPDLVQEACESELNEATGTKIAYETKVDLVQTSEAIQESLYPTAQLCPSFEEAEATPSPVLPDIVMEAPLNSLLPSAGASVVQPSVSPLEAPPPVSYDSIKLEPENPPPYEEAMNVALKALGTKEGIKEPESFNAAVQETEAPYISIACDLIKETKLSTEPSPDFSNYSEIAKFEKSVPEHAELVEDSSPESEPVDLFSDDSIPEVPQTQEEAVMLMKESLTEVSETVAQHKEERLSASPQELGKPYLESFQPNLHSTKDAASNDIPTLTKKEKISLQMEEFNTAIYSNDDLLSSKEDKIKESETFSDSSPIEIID
From the text: (§1) The neurite outgrowth inhibitor Nogo-A contains 3 inhibitory regions. Two are shared with the splice variant Nogo-B (Nogo-66 located between the two transmembrane regions and the NIR domain at the tip of the N-terminus) and one is shared with the splice variant Nogo-C (Nogo-66). The unique, highly inhibitory domain for neurite outgrowth of Nogo-A is located in the exon 3 of Nogo-A and is called delta 20 region (d20; human aa position 566-748) (Oertle et al., J. Neurosci. 23 (2003), 5393-5406). To confirm the binding properties of antibodies NG004 NG034 and to monitor for cross-reactivity to other species like rat, an ELISA with a fragment containing the d20 region plus some additional amino acids C- and N-terminal of the inhibitory region (human aa position 543-866) was performed. This fragment is called rat or human d20plus and is recombinantly produced in E. coli. To examine that the antibody binds strongly to the d20plus region and to compare the binding properties of the subject antibodies NG004 and NG034 to the already known antibodies (11C7 and Ozanezumab) the ELISA was used and EC₅₀ values were compared.
(§2) The ELISA is performed according to a standard protocol (Engvall & Perlmann, J. Immunol. 109 (1972), 129-135, Engvall & Perlmann, Immunochemistry 8 (1971), 871-874). […] The readouts are performed on the Tecan Sparc plate reader.

[2] = target: T2, human Nogo-A d20plus region (human aa position 543-866), recombinantly produced in E. coli (human, UniProt Q9NQC3 543-866); test: ELISA, coated human d20plus
T2 construct: range 543-866; also called human d20plus; hu d20+
T2 sequence (looked up): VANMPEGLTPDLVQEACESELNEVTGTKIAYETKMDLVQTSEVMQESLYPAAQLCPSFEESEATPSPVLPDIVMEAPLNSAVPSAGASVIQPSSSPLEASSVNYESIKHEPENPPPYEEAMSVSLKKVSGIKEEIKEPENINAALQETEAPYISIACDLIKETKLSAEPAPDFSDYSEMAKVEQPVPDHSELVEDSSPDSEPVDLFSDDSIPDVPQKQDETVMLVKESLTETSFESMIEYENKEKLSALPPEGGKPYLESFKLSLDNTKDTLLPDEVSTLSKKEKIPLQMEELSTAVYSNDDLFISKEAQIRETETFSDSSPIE
From the text: as §1, §2

[3] = target: T3, peptide 35: 137-EPENINAALQETEAP-151 (human); test: pepscan, 15-mer peptides on nitrocellulose, NG004 at 1 ug/ml
T3 construct: Spotted on a nitrocellulose membrane; The range counts on the d20plus region; also called spot 35
T3 peptide: EPENINAALQETEAP
Experimental: (§3) Epitope mapping of NG004 was performed using scans of overlapping peptides. The sequences of the d20plus region of Nogo-A (aa 543-866 of human Nogo-A) were synthesized as linear 15-mer peptides with an 11 amino acid overlap between individual peptides. Those peptides were spotted onto nitrocellulose membranes (JPT Peptide Technologies, Berlin, Germany). The membrane was activated for 5 min in methanol and washed in TBS for 10 min at RT. Non-specific binding sites were blocked for 2 hours at RT with Roti®-Block (Carl Roth GmbH+Co. KG, Karlsruhe, Germany). NG004 (1 μg/ml) was incubated in Roti®-Block for 3 h at room temperature. Binding of primary antibody was determined using HRP-conjugated donkey anti-human IgG secondary antibody. Blots were developed and evaluated using ECL and ImageQuant 350 detection (GE Healthcare, Otelfingen, Switzerland).

[4] = target: T4, peptide 34: 133-EEIKEPENINAALQE-147 (human); test: as above
T4 construct: Spotted on a nitrocellulose membrane; The range counts on the d20plus region, not on full-length Nogo-A; also called spot 34
T4 peptide: EEIKEPENINAALQE
Experimental: as §3

[5] = target: T5, peptide 36: 141-INAALQETEAPYISI-155 (human); test: as above
T5 construct: Spotted on a nitrocellulose membrane; The range counts on the d20plus region; also called spot 36
T5 peptide: INAALQETEAPYISI
Experimental: as §3

[6] = target: T2, human Nogo-A d20plus region (human aa …); test: ELISA, plate coated with 3 ug/ml human d20plus
From the text: as §1, §2

[7] = target: T2, human Nogo-A d20plus region (human aa …); test: ELISA, coated d20plus (human, as read from the context), internal standard

EC50 [1]: 0.229 nM
EC50 [2]: 0.298 nM
B1: anti-Nogo-A specific human antibody NG034 (antibody, V domains shown)
VH: EVQLVETGGGLVPPGGSLRLSCAASGFTFTNYSMHWVRLAPGKRLEYISAISSDGGDPFYASSVKGRVAISRDNSKKTLYLQMGRLRPEDTAVYYCVSDAFDVWGQGTMVTVSS
VL: EIVLTQSPLSLSVTLGQPASISCRSSQSLLYSNGNTYLNWFQQRPGQSPRRLLYRVSNRDSGVPDRFSGSGSGTHFTLKISRVEAEDVGVYYCMQGTHWPRTFGQGTKVEIK

binding result [3]: binds
binding result [4]: binds
binding result [5]: binds
EC50 [6]: 0.26 nM
B2: anti-Nogo-A specific human antibody NG004 (antibody, V domains shown)
VH: EVQLVESGGGVVQPGRSLRLSCAASGFTFRSHAMHWVRQAPGKGLEWVAVTSYDGTNKYYADSVKGRFTISKDNSKNTLYLQMDSLRVEDTAVYYCARGRAVAGTREDYWGQGTLVTVSS
VL: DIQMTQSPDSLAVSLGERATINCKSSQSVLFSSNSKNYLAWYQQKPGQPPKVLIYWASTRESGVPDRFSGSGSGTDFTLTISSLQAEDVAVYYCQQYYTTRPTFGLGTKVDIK
notes: The neurite outgrowth assay used NG004.h4.m1 (human IgG4 S228P) and NG004.m1 (mouse IgG1); also called NG004.m1; NG004.h4.m1

EC50 [7]: 0.2 nM
B3: Ozanezumab (antibody, V domains shown)
VH: QVQLVQSGAEVKKPGASVKVSCKASGYTFTSYWMHWVRQAPGQGLEWIGNINPSNGGTNYNEKFKSKATMTRDTSTSTAYMELSSLRSEDTAVYYCELMQGYWGQGTLVTVSS
VL: DIVMTQSPLSNPVTLGQPVSISCRSSKSLLYKDGKTYLNWFLQRPGQSPQLLIYLMSTRASGVPDRFSGGGSGTDFTLKISRVEAEDVGVYYCQQLVEYPLTFGQGTKLEIK
